Source: the DeepSol protein solubility set

Experiment: soluble on expression in E. coli; label from the status in PepcDB or PDB records

| Sequence | soluble on expression in E. coli |
| --- | --- |
| MSDMEKPWKEEEKREVLAGHARRQAPQAVDKGPVTGDQRISVTVVLRRQRGDELEAHVERQAALAPHARVHLEREAFAASHGASLDDFAEIRKFAEAHGLTLDRAHVAAGTAVLSGPVDAVNQAFGVELRHFDHPDGSYRSYVGDVRVPASIAPLIEAVLGLDTRPVARPHFRLRRRAEGEFEARSQSAAPTAYTPLDVAQAYQFPEGLDGQGQCIAIIELGGGYDETSLAQYFASLGVSAPQVVSVSVDGATNQPTGDPNGPDGEVELDIEVAGALAPGAKIAVYFAPNTDAGFLNAITTAVHDPTHKPSIVSISWGGPEDSWAPASIAAMNRAFLDAAALGVTVLAAAGDSGSTDGEQDGLYHVDFPAASPYVLACGGTRLVASAGRIERETVWNDGPDGGSTGGGVSRIFPLPSWQERANVPPSANPGAGSGRGVPDVAGNADPATGYEVVIDGETTVIGGTAAVAPLFAALVARINQKLGKPVGYLNPTLYQLPPEVFHDITEGNNDIANRARIYQAGPGWDPCTGLGSPIGIRLLQALLPSASQAQP | soluble |
| MSDRQAALDMALKQIEKQFGKGSIMKLGEQAERKVSTVSSGSLALDVALGVGGYPRGRIIEIYGPESSGKTTVSLHAIAEVQRQGGQAAFIDAEHAMDPVYAQKLGVNIDELLLSQPDTGEQGLEIAEALVRSGAVDIIVIDSVAALVPKAEIEGDMGDSHVGLQARLMSQALRKLSGAINKSKTIAIFINQIREKVGVMFGNPETTPGGRALKFYSTVRLEVRRAEQLKQGNDIVGNKTKVKVVKNKVAPPFRVAEVDIMYGEGISREGEILDMASELDIVQKSGAWYSYNEERLGQGRENSKQFLKENTDLREEIAFFIREHHGISEDSGAEGMEDPNLLD | not soluble |
| MSDSHHKPVWDRTHHAKMATGIGDPQCFKGMAGKSKFNVGDRVRIKDLPDLFYTRTMTYTRGATGTIVRLVYESPAAEDEAFGNEENVEWFYSIVFAQKDLWPEYSDTFANDTLETEIPERYLEKA | soluble |
| MSDSSNQLMPLSLSAPGVNLGAYISTVNQIPILTAEQEKELAERYYYDQDLDAAKMLVMSHLRFVVHIARSYAGYGLPQGDLIQEGNLGLMKAVKRFDPNMGVRLVSFAVHWIKAEIHEYVIRNWRIVKIATTKAQRKLFFNLRSLKKSSKKLTLEEAQSIANDLNVTPEQVLEMEGRLTAYDAAFETQGDDDDDSSTHVAPALYLEDNRYDPARLAENDDYEEQSSTALHEAMNQLDDRSRNILQRRWLDDDKSTLHELAAEYNVSAERIRQLEKNAMEKIKVAMSAG | not soluble |
| MSDSSPTNLPSRAFATQKLAKLIDRWTGNANQYDTPISGLRFSRWTTPTPPTSYTHNPSICLIAQGRKRVLLGEESFIYDANHFLISSVDLPIIANIIEASEEQPYLGLIMELDLTEISQLIVDSELAFTQSKEAQKGIAVGELSESLLDAFVRLAELLDEGQNIKILAPIIKREIFYRLLMSEQGTRLHQIATAGSHSHQIAKAIDWLKNNFVKPLSVGDLASYTGMSKSSFYTHFRSMTSMTPLQFQKKLRLSEARRLMLTENLDAMAATFKVGYESPSQFSREYSRLFGAPPSKDIKSLRENLG | not soluble |
| MSDVDADEARKMAERERKKEEVRKRLEEASRMKKAKKGFLTPERKKKLRKLLMMKAAEDLKQQQMLKEQERQRILQERIIPLPDLDNEDDLEAVYDEIRERLIDLESENYDVSYIVRQKDFEINELTIAVNDLRGKFVKPTLKKVSKTEGKFDKLKKKEATKVDFRAQLKVVDKNEFALDEEDTEKKEKAAWAK | not soluble |
| MSDVLITLSVELEDRPGQLLKVLQPISGMGGNIVGIVHQRGKKTPLNRLPVEISFKMDSEKVQKLIDELKSLGIIIRSFNEVRLTATTSVLLIGHLIHTDISDTISSIDVDGEAECVEMHVSMPEISGPSTAIITISASGKEKLKEAVEKLKEVCRKKEIILIEPVNEELV | not soluble |
| MSEAHPPELKKFMDKKLSLKLNGGRHVQGILRGFDPFMNLVVDDTIEMAPGGQMNTIGMVVIRGNSIIMLEALERV | soluble |
| MSEEPVAAPGTISHPVYKLKRNWTWWYLNDERNKSWEERLKNVKTFSSVGEFWALHDSIKPPSGLNPPSDYNVFRDGIEPMWEVPQNQNGGRWLITIEKGRTPEIMDTIWTEILMAMIGEQFSDDIESLCGIVCNVRGKGSKISVWTTNSADDGANLRIGGVLKQVLNNASMIHQRPLYDVLRYEDHESCQKKTSSGVKAKHAIYAVEPREEKAPVPVSTETPATPAT | not soluble |
| MSEFSQTALFPSLPRTARGTAVVLGNTPAGDKIQYCNGTSVYTVPVGSLTDTEIYTEHSHQTTVAKTSPSGYYCASGDVHGNVRIWDTTQTTHILKTTIPVFSGPVKDISWDSESKRIAAVGEGRERFGHVFLFDTGTSNGNLTGQARAMNSVDFKPSRPFRIISGSDDNTVAIFEGPPFKFKSTFGEHTKFVHSVRYNPDGSLFASTGGDGTIVLYNGVDGTKTGVFEDDSLKNVAHSGSVFGLTWSPDGTKIASASADKTIKIWNVATLKVEKTIPVGTRIEDQQLGIIWTKQALVSISANGFINFVNPELGSIDQVRYGHNKAITALSSSADGKTLFSADAEGHINSWDISTGISNRVFPDVHATMITGIKTTSKGDLFTVSWDDHLKVVPAGGSGVDSSKAVANKLSSQPLGLAVSADGDIAVAACYKHIAIYSHGKLTEVPISYNSSCVALSNDKQFVAVGGQDSKVHVYKLSGASVSEVKTIVHPAEITSVAFSNNGAFLVATDQSRKVIPYSVANNFELAHTNSWTFHTAKVACVSWSPDNVRLATGSLDNSVIVWNMNKPSDHPIIIKGAHAMSSVNSVIWLNETTIVSAGQDSNIKFWNVPF | soluble |
| MSEHLTLPTNKPQVTHFSSGPCAKHPGWSVSNLENACLGRSHRSEDGKAKLSEVIERSKQILGLPADYRLGIVPASDTGAVEMALWSLLGQRPLDILAWESFGQEWVKDVVDELKLPDVRLLKAPYGGLPNLDEVDFSHDVVFLWNGTTSGVRVPNGDWIKDDRQGLTICDATSAVFAMDIPWEKIDVLTYSWQKVLGGEAQHGVIVLSPRAVERLQTYEPAWPIPKIFRLSQKGKLIEGIFKGDTINTPSMLCVEDALDALIWAESVGGLPGLISRSEANLAAIAQWVKQSNWADFLAEKPETRSCTSICLKIVDAAFASLSAEDQGKFAKKLAKLLEKQQVAYDIAPYRAAPPGLRIWGGATVETADIEALLPWLDWAYANVKAEFVPVA | soluble |
| MSEIVVSKFGGTSVADFDAMNRSADIVLSDANVRLVVLSASAGITNLLVALAEGLEPGERFEKLDAIRNIQFAILERLRYPNVIREEIERLLENITVLAEAAALATSPALTDELVSHGELMSTLLFVEILRERDVQAQWFDVRKVMRTNDRFGRAEPDVAALAELAALQLLPRLNEGLVITQGFIGSENKGRTTTLGRGGSDYTAALLAEALHASRVDIWTDVPGIYTTDPRVVSAAKRIDEIAFAEAAEMATFGAKVLHPATLLPAVRSDIPVFVGSSKDPRAGGTLVCNKTENPPLFRALALRRNQTLLTLHSLNMLHSRGFLAEVFGILARHNISVDLITTSEVSVALTLDTTGSTSTGDTLLTQSLLMELSALCRVEVEEGLALVALIGNDLSKACGVGKEVFGVLEPFNIRMICYGASSHNLCFLVPGEDAEQVVQKLHSNLFE | not soluble |
| MSELTQLAQQEKKQTYNFNKLQKRLRRNVGNAIADFGMIEDGDKVMVCLSGGKDSYTLLDILLNLQQSAPIKFDIVAVNLDQKQPGFPEHVLPEYLESIGVDYKIVQENTYGIVKEKIPEGKTTCSLCSRLRRGILYRTATELGATKIALGHHRDDMLATLFLNMFYGGKIKSMPPKLISDDGKQIVIRPLAYCKEKDIEKYAIAKEFPIIPCNLCGSQPNLQRQVVKEMLNTWDRQYPGRLETMFSAMQNITLSHMCDPKLFDFKGIKHGQLIDGIEGDTAFDEERITPMQFEDEDQTDFSNKEMINFKEVN | not soluble |
| MSENHVPAWKRIALKRQTISSGDESKEKGQSNLIDDDPLNITTHLSTGNLTKKEKKRIINGESKSSTKKGKRVSKPGTKKKEKLSKDEKNSKKNKILKDQLRYLIEFFRTKSESKFPTGILELESVKENYGDSLIKDEPSESGVVEVWKFSKQKQNWLIKHFFNLDEIPSVYNDLLLLYFRDLQGKSKEELISKCKGKLKQWNDYVEDQETKIKALIAEDKASEPINGEEKEEGEKDGNAEQGKQKEVQDEQEEVQMPNKELVQRSLKLLEIWKNDDSEQIELKNFFVDV | soluble |
| MSEPSEKKQKVATSSLEQLKKAGTHVVADSGDFEAISKYEPQDSTTNPSLILAASKLEKYARFIDAAVEYGRKHGKTDHEKIENAMDKILVEFGTQILKVVPGRVSTEVDARLSFDKKATVKKALHIIKLYKDAGVPKERVLIKIASTWEGIQAARELEVKHGIHCNMTLLFSFTQAVACAEANVTLISPFVGRIMDFYKALSGKDYTAETDPGVLSVKKIYSYYKRHGYATEVMAASFRNLDELKALAGIDNMTLPLNLLEQLYESTDPIENKLNSESAKEEGVEKVSFINDEPHFRYVLNEDQMATEKLSDGIRKFSADIEALYKLVEEKMLEHHHH | soluble |
| MSEQFEMIAKTFQGLEEILAEELTTLGANDIQIGRRMVSFTGDKRMMYKANFCLRTAIRILKPIKNFTAKDADEVYNQIQAIPWEEYLDVNKTFAIDAVVFSEEFRHSKFVSYKVKDAIVDYFRKKTGKRPSVRINNPDVLLNIHIAQTTCTLSLDSSGESLHRRGYRQEQVDAPLNEVLAAGMLLMTGWRGECDLIDPMCGSGTIPIEAALIARNIAPGVFRKGFAFEKWVDFDSEMFDEIYNDDSQEREFTHKIYGYDNNPKANEIATHNIKAAGVSKDVTLKLQPFQQFEQPQEKSIIVMNPPYGERISTNDLLGLYQMIGERLKHAFVGNEAWVLSYREECFDQIGLKPSKKVPLFNGALECEFRKYEIFDGKYKEFKSQEGEGEEKKETEGNYDTSRPRERKEFKPRGEGEFKPRREGEFKPRREGEFKPRKEGDFKPRREEGSFTRDDRDRKPRGEFRGERDSRAPREFRGNREPRIPKKEEE | not soluble |
| MSEQLTDQVLVERVQKGDQKAFNLLVVRYQHKVASLVSRYVPSGDVPDVVQEAFIKAYRALDSFRGDSAFYTWLYRIAVNTAKNYLVAQGRRPPSSDVDAIEAENFESGGALKEISNPENLMLSEELRQIVFRTIESLPEDLRMAITLRELDGLSYEEIAAIMDCPVGTVRSRIFRAREAIDNKVQPLIRR | not soluble |
| MSERLEVSIEGEDDFPFDEDNIQELDHFDIGEDEDPEEVAQEDAGVWQERVPLTRQKRKQVLRKPGRKRTGEIIHIPKRQPPRAVRVKSYQQYDAFDELVEQDLDDSDPEVMDDDGEPSTSKTWRIFVRKDGSGMHFDWPIFMDSAVSLKDVVNFISTDASEIPKSLICTSIPQEFTNTGTFIIHLEEGLLKEEICNDGLGTWNSAQMFVRKYVLGVGRARPLMTQKNDHNLKHIFISGFDKDEHMIPYVVICYEWMGQPHPLTVYEDQTEKQAFEQMTWKKCSNPEDQVPILARHGCDYNSAVAILLSSEKCTNYGKSVPQFVQECISFVIDINECGGDRALFLDGNEWQRPSGSHRFFRILYPNQDHGDFDTWNIERASSNFNVTNSDIQIICRRYNGQKYSQSFGFVRKIYLLKILPLCPPEVAEQLHNRDLAVISYSYRNAPHPTFIEQPDRQKLPDGQRVGEEVELVSGDVMFDDDISPEMREMVENMERKKKINSERLMELLQRIHRIDQICKKEAWLESSAEVQQLTQIAQLLHYCQ | not soluble |
| MSESIESYGIRLLNVYRETICDGPGLHYSIYLAGCRHACPGCHNPSSWDPEAGVLMTDSILGNIIREINANPLLDGITLSGGDPFYNPAGLTCLLQRLRASCTLPIWCYTGYTLEQLETDPMLSAPLALIDVLVDGPFVRELFDPTLLWRGSSNQCIIRLHENLEHHHHHH | not soluble |
